Source: WO2014196658A1 (dated 2014)

Key:
[1] = biological target: T1, human aquaporin 4 (hAQP4) M23 isoform (human, UniProt P55087 1-323); assay: ELISA on plates coated with budded baculovirus expressing human AQP4 M23
[2] = biological target: T1, human aquaporin 4 (hAQP4) M23 isoform; assay: cell ELISA on live CHO cells expressing hAQP4 M23, 37 °C 1 h, 4-parameter logistic fit

T1 sequence (P55087 whole entry, canonical isoform): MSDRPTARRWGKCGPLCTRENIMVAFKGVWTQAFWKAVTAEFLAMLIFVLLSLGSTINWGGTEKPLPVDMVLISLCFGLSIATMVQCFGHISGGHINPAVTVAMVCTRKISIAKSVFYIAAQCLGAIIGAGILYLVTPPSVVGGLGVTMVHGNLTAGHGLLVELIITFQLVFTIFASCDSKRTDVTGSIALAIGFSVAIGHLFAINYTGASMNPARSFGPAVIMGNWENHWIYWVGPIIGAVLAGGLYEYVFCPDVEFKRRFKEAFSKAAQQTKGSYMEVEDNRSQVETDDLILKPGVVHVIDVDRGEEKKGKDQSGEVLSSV

| EC50 [1] | EC50 [2] | Binder |
| --- | --- | --- |
| 0.166 nM | 0.162 nM | anti-aquaporin 4 monoclonal antibody produced by hybridoma clone C9401 (antibody, V domains shown, also called C9401 antibody; original antibody (C9401)) VH: QVQLQQSGPELVKPGASVRISCKASGYTFTNYYIHWVKQRPGQGLEWIGWIYPGNVNTKKNEKFKGKATLTADKSSSTAYMQLSSLTSEDSAVYFCARGVPYAFWGQGTLVTVSA VL: DIVLTQSPASLAVSLGQRATISCRASKSVDSYGNSFMHWYQQKPGQPPKLLIYRASNLESGIPARFSGSGSRTDFTLTINPVEADDVATYYCQQSNEDPPTFGGGTKLEIKR |
|  | 0.116 nM | anti-aquaporin 4 monoclonal antibody produced by hybridoma clone D12092 (antibody, V domains shown, Mouse antibody from a hybridoma; also called D12092 antibody) VH: QVQLKESGPGLVAPSQSLSITCTVSGFSLTRYGVHWVRQPPGKGLEWLVVIWSDGSTTYNSALKSRLSISKDNSKSQVFLKMNSLQTDDTAIYYCARGPPFAYWGQGTLVTVST VL: DIVLTQSPASLAVSLGQRATISCRASKSVDSYGNSFMHWYQQKPGQPPKLLIYRASNLESGIPARFSGSGSRTDFTLTINPVEADAVATYYCQQSYEDPPTFGAGTKLEIKR |
|  | 0.15 nM | anti-aquaporin 4 monoclonal antibody produced by hybridoma clones D15107 and D15129 (same antibody) (antibody, V domains shown, Mouse antibody from hybridomas; They are therefore one molecule here, and the rows keep the printed label; also called D15107 (D15129); D15107/D15129) VH: QVQLKESGPGLVAPSQSLSITCTVSGFSLTSYGVHWVRQPPGKGLEWLGVIWAGRRTNYNSALMSRLSISKDNSKSQVFLKMNSLQTDDTAMYYCARGDGIFPYWGQGTLVTVSA VL: DIVLTQSPGSLAVSLGQRATISCRASESVDSYGNSFMHWYQQKSGQPPKLLIYRASNLESGIPARFSGSGSRTDFTLTINPVEADDVATYYCQQSNEDPFTFGSGTKLEIKR |
